Test results taken from patent US20210371867A1 (SYSMEX, published 2021).
Blank lines part the entries; values can stand above or below the binder they belong to.

Assays:
[1] = biological target: human IgG antibody (human); test: sandwich chemiluminescence immunoassay (HISCL-800); detection reagent stored at 40° C. for 1 week
[2] = biological target: human IgG antibody (human); test: sandwich chemiluminescence immunoassay (HISCL-800); PC counts over NC counts, R3 reagent stored at 4° C.
[3] = biological target: human IgG antibody (human); test: sandwich chemiluminescence immunoassay on magnetic particles (HISCL-800); capture biotin-labeled mouse anti-human IgG semi-IgG; binder as detection antibody, 0.052 U/mL
[4] = biological target: human IgG antibody (human); test: sandwich chemiluminescence immunoassay on magnetic particles (HISCL-800); capture biotin-labeled mouse anti-human IgG semi-IgG; binder as detection antibody, 0.051 U/mL
[5] = biological target: human IgG antibody (human); test: sandwich chemiluminescence immunoassay on magnetic particles (HISCL-800); capture biotin-labeled mouse anti-human IgG semi-IgG; binder as detection antibody, 0.055 U/mL

Counts (PC, R3 reagent stored at 40° C., 1 week) [1]: 421000 counts | S/N [2]: 927 | Counts (PC, R3 reagent stored at 4° C.) [3]: 463000 counts
B1: ALP fusion antibody of Example 2 (EK1): Fab of mouse anti-human IgG antibody, Fd-EK1-BIAPII (Fab, part only; not given: Fd and light chain of anti-IgG Fab, part only)
heavy, part: EAAAKLIPAEEENPAFWNRQAAQALDVAKKLQPIQTAAKNVILFLGDGMGVPTVTATRILKGQMNGKLGPETPLAMDQFPYVALSKTYNVDRQVPDSAGTATAYLCGVKGNYRTIGVSAAARYNQCNTTRGNEVTSVINRAKKAGKAVGVVTTTRVQHASPAGAYAHTVNRNWYSDADLPADAQKNGCQDIAAQLVYNMDIDVILGGGRMYMFPEGTPDPEYPDDASVNGVRKDKQNLVQEWQAKHQGAQYVWNRTALLQAADDSSVTHLMGLFEPADMKYNVQQDHTKDPTLAEMTEAALQVLSRNPRGFYLFVEGGRIDHGHHDGKAYMALTEAIMFDNAIAKANELTSELDTLILVTADHSHVFSFGGYTLRGTSIFGLAPGKALDSKSYTSILYGNGPGYALGGGSRPDVNGSTSEEPSYRQQAAVPLASETHGGEDVAVFARGPQAHLVHGVQEETFVAHIMAFAGCVEPYTDCNLPAPA

Counts (PC, R3 reagent stored at 40° C., 1 week) [1]: 331000 counts | S/N [2]: 737 | Counts (PC, R3 reagent stored at 4° C.) [4]: 364000 counts
B2: ALP fusion antibody of Example 2 (GS3): Fab of mouse anti-human IgG antibody, Fd-GS3-BIAPII (Fab, part only; not given: Fd and light chain of anti-IgG Fab, part only)
heavy, part: GGGGSGGGGSGGGGSLIPAEEENPAFWNRQAAQALDVAKKLQPIQTAAKNVILFLGDGMGVPTVTATRILKGQMNGKLGPETPLAMDQFPYVALSKTYNVDRQVPDSAGTATAYLCGVKGNYRTIGVSAAARYNQCNTTRGNEVTSVINRAKKAGKAVGVVTTTRVQHASPAGAYAHTVNRNWYSDADLPADAQKNGCQDIAAQLVYNMDIDVILGGGRMYMFPEGTPDPEYPDDASVNGVRKDKQNLVQEWQAKHQGAQYVWNRTALLQAADDSSVTHLMGLFEPADMKYNVQQDHTKDPTLAEMTEAALQVLSRNPRGFYLFVEGGRIDHGHHDGKAYMALTEAIMFDNAIAKANELTSELDTLILVTADHSHVFSFGGYTLRGTSIFGLAPGKALDSKSYTSILYGNGPGYALGGGSRPDVNGSTSEEPSYRQQAAVPLASETHGGEDVAVFARGPQAHLVHGVQEETFVAHIMAFAGCVEPYTDCNLPAPA

Counts (PC, R3 reagent stored at 40° C., 1 week) [1]: 436000 counts | S/N [2]: 665 | Counts (PC, R3 reagent stored at 4° C.) [5]: 465000 counts
B3: ALP fusion antibody of Example 2 (EK3): Fab of mouse anti-human IgG antibody, Fd-EK3-BIAPII (Fab, part only; not given: Fd and light chain of anti-IgG Fab, part only)
heavy, part: EAAAKEAAAKEAAAKLIPAEEENPAFWNRQAAQALDVAKKLQPIQTAAKNVILFLGDGMGVPTVTATRILKGQMNGKLGPETPLAMDQFPYVALSKTYNVDRQVPDSAGTATAYLCGVKGNYRTIGVSAAARYNQCNTTRGNEVTSVINRAKKAGKAVGVVTTTRVQHASPAGAYAHTVNRNWYSDADLPADAQKNGCQDIAAQLVYNMDIDVILGGGRMYMFPEGTPDPEYPDDASVNGVRKDKQNLVQEWQAKHQGAQYVWNRTALLQAADDSSVTHLMGLFEPADMKYNVQQDHTKDPTLAEMTEAALQVLSRNPRGFYLFVEGGRIDHGHHDGKAYMALTEAIMFDNAIAKANELTSELDTLILVTADHSHVFSFGGYTLRGTSIFGLAPGKALDSKSYTSILYGNGPGYALGGGSRPDVNGSTSEEPSYRQQAAVPLASETHGGEDVAVFARGPQAHLVHGVQEETFVAHIMAFAGCVEPYTDCNLPAPA
